{
  "source": "the DeepSol protein solubility set",
  "data": [
    {"assay": "soluble on expression in E. coli; label from the status in PepcDB or PDB records", "values": [
      {"sequence": "MGHHHHHHGGHMSLITAEECRTYKEFVDLYQSYLYPLLGARLSRMYSPKNKVIIDMGTGPGYLSIQLAKRTNAHVHAVDINPAMHEIAQEEAKKSGVSSLISFDLEDVHHLSYADQYADFIVSYSCLHHWEDVVKGLKECYRVLAPGGKIVILDTFNPQGSHLEIMRKQIKEPEYFRFVREAFEESYSFEDIHQFVQDAGIPNYSLETFHFLPEDFIESLDELEDAPLWEQNDQSTDHEIESVTWMLTIEKEKEGALEGGS", "soluble on expression in E. coli": "soluble"},
      {"sequence": "MAHHHHHHMSEQNGAHSLQAELERMNAAIESYALQLDTINSAIESIDSENHSDDVSRQIFEYQTACERDPANISAEDALDTVTRLENTLKIVRRRNQLLAKENATQQKLLNDRSKFLLKETKNYENLVDRTGWHEQCSLNPEDEAQKASDIQEMSQLEVTVQRELRAAHTILKKKEALLRGLEEQLAKGTDLDAELNNAYNDIRVRKRECRELELRLEHLRKCSKKNDEALTVFENHGQSVSIEYMETDKDFLKDAVAQMKLVCRRQDNVIRAQLTRQQQLQTRLDTILRSLREMNLEKEYERNVSKSALVPSASREEPEDVSSILPKEETIPIHTYRLIFKNKELMNTNVVRKNMLVLEKEGVIQALEASLMKYANALNMTTRQLENMKINKGFEMTELMVELQQQHKNYLQQLEQIMQENNKLKKQLYRTPQLRTLIKNR", "soluble on expression in E. coli": "not soluble"},
      {"sequence": "MAHHHHHHMSAPTALTVPRRSASDAALADATRRELEEEMGRSDKPEQPTPPAGWQVVRKPGTCTFDLTKSFEGEDLVVRYSTNQDSDKANSHNIFVYITQKNGQTMQADLSIEEGELVLNNIRFYDEAALAKDTGAEAEAKRNELYTGPLVHELDYDLLNCVMTYLEKRGVDEKLGEFVVLYSFWAEQQDYEAWLTTMNKFAS", "soluble on expression in E. coli": "soluble"},
      {"sequence": "MDVVILDTGCANLSSVTYAVQRLGYTPVISRDPAVVLRADKLFMPGVGTAHAAMEQLRQRELIELIKSCTQPVLGICLGMQLLATSSEESGGITTLGMIDAPVKKMTDFGLPLPHMGWNQITAQAGNHLFRGIPDGTYFYFVHGYAMPICPNTIAQTNYGEPFTAAVEKDNFFGVQFHPERSGAAGAQLMKNFLEM", "soluble on expression in E. coli": "not soluble"},
      {"sequence": "MHKINKWSVIYNINSTVTRALRDLMQGILQKI", "soluble on expression in E. coli": "soluble"},
      {"sequence": "MGSDAFDEMDEIWALYADDGAQALDAMEASLLALQAGEDAAAHVGPLFRAVHTFKGNSRVLGLSVVESRAHLCEDLIGLVRDAGVPMDGEIVEILLFASDTLRAMLEETAASRADVEGTGSEALMDQLRSKIARCSRSHHHHHH", "soluble on expression in E. coli": "soluble"},
      {"sequence": "MATPASGALLQQMNLASQSLNYELSFISINKQGVESLRYRHARLDNRPLAQLLQMDGPRREVVQRGNEISYFEPGLEPFTLNGDYIVDSLPSLIYTDFKRLSPYYDFISVGRTRIADRLCEVIRVVARDGTRYSYIVWMDTESKLPMRVDLLDRDGETLEQFRVIAFNVNQDISSSMQTLAKANLPPLLSVPVGEKAKFSWTPTWLPQGFSEVSSSRRPLPTMDNMPIESRLYSDGLFSFSVNVNRATPSSTDQMLRTGRRTVSTSVRDNAEITIVGELPPQTAKRIAENIKFGAAQHHHHHH", "soluble on expression in E. coli": "soluble"},
      {"sequence": "MGSDKIHHHHHHMHMKLDDITYMNPWWEGKEDYHVKQWEKQKVHWEPKWIREISLKPFSLNFVLGPRQVGKTTGIKLLIQKILEENPPESVLYLNLEILPTYRELLDIIREFQELKKEEGIKTGYIFLDEASSLEGWWRGVKPLIDSGLLENDVITVTGSSSLRVRRDIELFPGRRGGGKTLEVMPLSFPEYARVMGLKKHKLEGSKVIKLFEKYIQTGGFPGSINGFPMEDLLGAYIGEFVRFGKSLEIAKEIFSALIRSAPSATSFRALAEMTSGYSYKVVQDYIEFFRDLYILGMAYLKQGNQVMYRREKKFFFRDPLLAKLFSLWSGTEIGKDALYEWIVQEHVFRKFGEIHYFRNSYEIDIIASDMKIEVKAGKAHRKYPRGVKVLEKEDVPFFLIELYNEDC", "soluble on expression in E. coli": "not soluble"},
      {"sequence": "MGSDKIHHHHHHMRIQQLHYIIKIVETGSMNEAAKQLFITQPSLSNAVRDLEREMGIEIFIRNPKGITLTKDGVEFLSYARQVVEQTALLEERYKSQGHTRELFSVSAQHYAFVVNAFVSLLKETDMTRYELFLRETRTYEIIDDVKNFRSEIGVLFLNSYNHDVLTKMFDDNHLTYTSLFKAHPHIFVSKDNPLAKHQSVSLSDLEDFPYLSYDQGIHNSFYFSEEIMSQISHKKSIVVSDRATLFNLMIGLDGYTIATGILNSNLNGDNIVSIPLEVDDEIDIIYLKHEKANLSKMGEKFIDYLLEEVKFDK", "soluble on expression in E. coli": "not soluble"},
      {"sequence": "MLRPYVAEWFRSTYGSFTEPQRQAIPLVKQGKSVLITSPTGTGKTLAAFLGVIDEILFLMENRWEEKGILAVYVSPLRALNNDIRRNLEEPLRGIEEKAREMGLEPPRVKVAVRTSDTTPYEKQKMVKDPPHILITTPESLAAALAAPKFRERLSTVKWVVLDEIHELASNKRGAHLMVSVERLEELVREAGGKPLRRIGLSATIAPLDVVANFLGGFDDEGRPREVHIVDARFAKPIDIKVITPDVDLLRDPPDKINEAIYRKIAELVKQHRTTLIFTNTRSATERVVHKLKQILVKEGIASEDQIEAHHSSLSRNLRLDVEERLKRGELKVVVSSTSLELGIDIGYIDLVILLSSPKSVSRLLQRVGRAGHRIRDVSKGRLIVVDRDDLVECSVLADCAMKKFIDRVRIPMKPLDVLAQHIVGMSIEKKWRLEDAYRVVKRAYNFKDLSFEEFMSVVRFLAGKHGLEGEGVYSKIWLDEEEGLFGRKKSARMIYLLNVGVIPDETKIRVYTRDGKYVGDLEEEFVEILVPGDVFVLGGRTYRFLKSEGLRVIVERADDARPTVPSWFSEMLPLSFDSALKVGEFRRVFSALASSNPRAAVEKLVKEYYLEERAAATIVEYILEQLGYIGVVPSDKLVLIEYFPYEDGWGIVFHTLFGRRVNDALSRAYAVALSRRIGLPVRVAVTDNGFMLTVSEAGKPDASLLEKLIRDVTPENIRGILEEAISRTELMKRRFKHVAARMFIVLRRYKGKEVSPERLQLNSQKLLEVFLEEMKDSPPIRETFREILEDYMDIGAAGKVLEWIRKGEIEIVIKGPLPYPSPMAHSIVVRGYSDVVLMEDRRKMLMILREKVLEYIRKGRAAPTWVGGDGKGRLLKEEQ", "soluble on expression in E. coli": "soluble"},
      {"sequence": "MKKYQQLFKQIQETIQNETYAVGDFLPSEHDLMEQYQVSRDTVRKALSLLQEEGLIKKIRGQGSQVVKEETVNFPVSNLTSYQELVKELGLRSKTNVVSLDKIIIDKKSSLITGFPEFRMVWKVVRQRVVDDLVSVLDTDYLDMELIPNLTRQIAEQSIYSYIENGLKLLIDYAQKEITIDHSSDRDKILMDIGKDPYVVSIKSKVYLQDGRQFQFTESRHKLEKFRFVDFAKRKK", "soluble on expression in E. coli": "not soluble"},
      {"sequence": "MSTKEEITKEIEEQGAEVRRVKGDKNSTEEAKKEAIDKLLALKLTYKEVTGQEYAAPNARQSKPKKEEKPKQQPKQQEKKQDGKKQTLLGVGTKKDDNYSEWYSEVITKAEMIEYYDVSGCYVLRPWSFAVWESIQEWFDSGIKKLGVKNCYFPMFVSNAALEREKTHIADFAPEVAWVTRAGNSEMAEPIAIRPTSETVMYPSYKKWVQSHRDLPIKLNQWCNVVRWEFKHPTPFLRTREFLWQEGHTAFANPADAEKEVFQILDLYAGVYTDLLAIPVVKGRKSEKEKFAGGDFTTTVEAYVACNGRGIQGATSHHLGQNFSKMFDISYEDPAKEGERAFAWQNSWGLSTRTIGAMVMIHGDDKGLVLPPRVAAVQVIVVPVGFKTENKQSLFDAVDKVTKDLVADGVKAEHDLRENYNAGWKFNHWELKGVPIRFEVGPNDLAKNQVTAVIRHNGEKKQLSLEGLSKTVKSLLDEIHTAMYNKVLAQRDSHLKSTTCIEEFKKLLDEKCIILSPFCGRPDCEEEIKKASTREDGEGAQMGAKTLCIPLDQPKQELPSKCLFPSCTYNAKAFALFGRSY", "soluble on expression in E. coli": "not soluble"},
      {"sequence": "MGSSHHHHHHGGTGENLYFQGGSGLLMRSSSPAATVQATHQRVQSAQERHVRREYASDVNTPRALSVRSSRGGSFAFAPQVQEKYNTMNILVLGAPQVGKSLFINSYRAAITNTTRWPAAPVGISGFYGTTTVAPFPNHARQPTWLCIDTPGSLYTEKHAVLLEKLTEGMPWKTKLKGPNALTLRQIKDISPIAANKAHQCIIVVPATDLIEDDGLINTLLWRNRYRPAGGVADIIFYLKGLISSLRTLMDDASPFVVVTKMDKVGGARNSSACAALVSILGQCVPVNHVYFTAAVENRALLATGRTMVLESSTKQNLVRLHEDICLAVQWRNQVDAM", "soluble on expression in E. coli": "not soluble"},
      {"sequence": "QKVTLVKKKQETVSIDAGIDRMRRAVRLLDRAEWVEVIDSVRTNKADLLSAYNLIADNGRLEWVKGNQGEATSFVNGRGDHAIMTEKGEDGVYSLHEAHRIGGKWGNAIPLEKLNSRFNENYPSLRADGFTLLFASDRPDGIGGYDLYMTRRDLEDGIFLEPTLLGMPFNSPYNDYLLVYDELRGIGFFASDRFCPADVVTVYTFVINEEGRPVATDDMALKRAYASLKSIRATQDPERDYSRLIASARDNRTDAEKKASERQIYFPMQGMRIYTRWSDFQSSEAKSLYQDVMARKRKLEQAATRLEELRLLYGRASALERSGMKQEILRLENAIPPLEEEVGRMEKEVRNMELQAVQGF", "soluble on expression in E. coli": "not soluble"},
      {"sequence": "MGSDKIHHHHHHMSLSPQASAAPEQGYNFAYLDEQTKRMIRRGLLKAVAIPGYQVPFGGREMPLPYGWGTGGMQVTAAILGADDVLKVIDQGADDTTNAVSIRRFFARTAGVATTERTPEATVIQTRHRIPETALSGEQIMVYQVPIPEPLRFIEPSEAETRTMHALDDYGVMHVKLYEDIATFGHIATSYAYPVTVDERYVMDPSPIPKFDNPKLDMNPALMLFGAGREKRLYAVPPFTRVASLDFEDHPFEVQRWEESCAFCGSHESYLDELIVDDRGGKRFVCSDTDYCTQRRARQEEGEDAQ", "soluble on expression in E. coli": "not soluble"},
      {"sequence": "STVTQKNLFPYGDYLNSSQLHMEPDEVDTLREGEDPADRMHPYLAIYDLQPLKAHPLVFAPGVPVIAQVVGTERYTSGSKVGTCTLYSVRLTHGDFTWTTKKKFRHFQELHRDLQRHKVLMSLLPLARFAVTHSPAREAAAEDIPSLPRGGSEGSARHTASKQKYLENYLNRLLTMSFYRNYHAMTEFLEVSQLSFIPDLGSKGLEGVIRKRSGGHRVPGFTFCGRDQVCYRWSKRWLVVKDSFLLYMRPETGAISFVQLFDPGFEVQVGKRSTETRYGVRIDTSHRSLILKCSSYRQARWWGQEITELAQGSGRDFLQLHQHDSYAPPRPGTLARW", "soluble on expression in E. coli": "soluble"},
      {"sequence": "MTTSTKLVELLYQLEAQLQKHELWQQTMPSPEALQSVEPFAIDTLDPHEWLQWIFIARMHALVESSQPLPRGFSIEPYFAEVWKQEPQYAELLNTIRTIDELCKLEHHHHHH", "soluble on expression in E. coli": "not soluble"},
      {"sequence": "MASSLNEDPEGSRITYVKGDLFACPKTDSLAHCISEDCRMGAGIAVLFKKKFGGVQELLNQQKKSGEVAVLKRDGRYIYYLITKKRASHKPTYENLQKSLEAMKSHCLKNGVTDLSMPRIGCGLDRLQWENVSAMIEEVFEATDIKITVYTL", "soluble on expression in E. coli": "soluble"},
      {"sequence": "MSLTTRVIALDLDGTLLTPKKTLLPSSIEALARAREAGYQLIIVTGRHHVAIHPFYQALALDTPAICCNGTYLYDYHAKTVLEADPMPVNKALQLIEMLNEHHIHGLMYVDDAMVYEHPTGHVIRTSNWAQTLPPEQRPTFTQVASLAETTQQVNAVWKFALTHDDLPQLQHFGKHVEHELGLECEWSWHDQVDIAHGGNSKGKRLTKWVEAQGWSMENVVAFGDNFNDISMLEAAGTGVAMGNADDAVKARANIVIGDNTTDSIAQFIYSHLIEGHHHHHH", "soluble on expression in E. coli": "not soluble"},
      {"sequence": "MTADANKSESLLCMDKAREAIKSGDTDKARRMLLKAKKLDPGQNIEFLTKKIDDMTNNTSSSSQTSSSRASEERSYAHDDHYDDPNLRNRKARSPVKKNGKTEPEPKQRSASRTPKLGVDYTSEQKELVERIRHCKDYYEILKIDKKASDDDIRKEYRKLALKLHPDKCRAPHATEAFKALGNAYAVLSDTDK", "soluble on expression in E. coli": "not soluble"}
    ]}
  ]
}
